Measured values as given in US20120190564A1, “IDENTIFICATION OF PROTEIN BINDING SITES” (priority 2000, published 2012).
“Also recorded” adds a separate entry of the source. Ends that are not written are not given here. code + = amino-terminal bromo-group; mmt = not defined here

Legend:
Type in all cases: binding
monoclonal antibody 210 = assay: Standard linear Pepscan on all overlapping 12-mers of hTNF with mAb 210; details: all overlapping linear 12-mers covering hTNF
Method: FIG. 10: Standard linear Pepscan on all overlapping synthetic 12-mers covering the linear sequence of hTNF with monoclonal antibody 210 (R&D Systems, MAB210, clone 1825.12, through ITK Diagnostics Uithoorn, The Netherlands). A small peak with the sequence IKSPCQRETPEG (SEQ ID NO: 2) was identified. The y-axis are optical density values (OD) obtained using a ccd-camera system. Rampo, rabbit-anti-mouse peroxidase (DAKO).
The monoclonal antibody mAb-210 raised against hTNF was tested on linear and loop peptides (mAb-210 was bought from R&D Systems, MAB210, clone 1825.12, through ITK Diagnostics Uithoorn, The Netherlands). Firstly, it was tested in Pepscan on all overlapping linear 12-mers covering hTNF. […] Secondly, it was tested in Pepscan matrix-scan on double 15-mer loop-loop peptides (as described in FIGS. 3 and 4 and explained through FIGS. 11-12). Two loop-regions were labeled: peptide sequence GQGCPSTHVLLT (SEQ ID NO: 65) (squares 65 to 67) and SAIKSPCQRE (SEQ ID NO: 28) (squares 92 to 96) (FIGS. 13, 14). In addition in various squares loop peptide spots were identified corresponding to sequence GQGCPSTHVLLT (SEQ ID NO: 65) (spots 65-67); SAIKSPCQRE (SEQ ID NO: 28) (spots 92-96) and KGDRLSAEINR (SEQ ID NO: 29) (spots 126-129) (FIG. 14). […]

lysozyme-biotin = lysozyme-biotin (Gallus gallus, UniProt P00698); assay: Loop-loop Matrix-scan of CDR loop-peptide pairs with lysozyme-biotin; details: lysozyme-biotin 100 ug/ml, in triplo
Method: FIG. 16: Result of the loop-loop 15-mer Matrix-scan of loop-loop CDR-regions of antibodies with lysozyme-biotin (100 ug/ml, in triplo). Using 1 μg/ml lysozyme-biotin no binding is observed (not shown). Controls of only streptavidin-peroxidase in between the tests were negative (not shown). Peptides A, B, C, D, E and F: Peptide-A: +ARERDYRLDYZ (SEQ ID NO: 30) (HCDR3 of 1 fdl.pdb); Peptide-B: +ARGDGNYGYZ (SEQ ID NO: 31) (HCDR3 of 1mlb.pdb); Peptide-C: +LHGNYDFDGZ (SEQ ID NO: 32) (HCDR3 of 3hfl.pdb); Peptide-D: +ANWDGDYZ (SEQ ID NO: 33) (HCDR3 of 3hfm.pdb); Peptide-E: +ARRYGNSFDYZ (SEQ ID NO: 34) (HCDR3 of 1qfw.pdb); Peptide-F: +ARQGTAAQPYWYZ (SEQ ID NO: 35) (HCDR3 of 1qfw.pdb) (1fdl.pdb, 1mlb.pdb, 3hfl.pdb and 3hfm.pdb are antibodies that bind lysozyme; 1qfw.pdb are two antibodies that bind human choriogonadotrophin). All peptides have an amino terminal bromo-group (+) and a carboxyterminal lysine-mmt (Z).
Peptides 1 to 27: Peptide-1: +RASGNIHNYLAZ (SEQ ID NO: 36) (LCDR1 of 1fdl.pdb); Peptide-2: +RASQSISNNLHZ (SEQ ID NO: 37) (LCDR1 of 1mlb.pdb); Peptide-3: +SASSSVNYMYZ (SEQ ID NO: 38) (LCDR1 of 3hfl.pdb); Peptide-4: +RASQSIGNNLHZ (SEQ ID NO: 39) (LCDR1 of 3hfm.pdb); Peptide-5: +RASESVDSYGNSZ (SEQ ID NO: 40) (LCDR1 of 1qfw.pdb); Peptide-6: +ASESVDSYGNSFZ (SEQ ID NO: 41) (LCDR1 of 1qfw.pdb); […]: +SESVDSYGNSFMZ (SEQ ID NO: 42) (LCDR1 of 1qfw.pdb); Peptide-8: +ESVDSYGNSFMQZ (SEQ ID NO: 43) (LCDR1 of 1qfw.pdb); Peptide-9: +RASESVDSYGNSFZ (SEQ ID NO: 44) (LCDR1 of 1qfw.pdb); Peptide-10: +ASESVDSYGNSFMZ (SEQ ID NO: 45) (LCDR1 of 1qfw.pdb); Peptide-11: +SESVDSYGNSFMQZ (SEQ ID NO: 46) (LCDR1 of 1qfw.pdb); Peptide-12: +RASESVDSYGNSFMZ (SEQ ID NO: 47) (LCDR1 of 1qfw.pdb); Peptide-13: +ASESVDSYGNSFMQZ (SEQ ID NO: 48) (LCDR1 of 1qfw.pdb); Peptide-14: +RASESVDSYGNSFMQZ (SEQ ID NO: 49) (LCDR1 of 1qfw.pdb); Peptide-15: +KASETVDSFVSZ (SEQ ID NO: 50) (LCDR1 of 1qfw.pdb); Peptide-16: +LLVYYTTTLADGZ (SEQ ID NO: 51) (LCDR2 of 1fdl.pdb); Peptide-17: +LLIKYVSQSSSGZ (SEQ ID NO: 52) (LCDR2 of 1mlb.pdb); Peptide-18: +RWIYDTSKLASGZ (SEQ ID NO: 53) (LCDR2 of 3hfl.pdb); Peptide-19: +LLIKYASQSISGZ (SEQ ID NO: 54) (LCDR2 of 3hfm.pdb); Peptide-20: +LLIYRASNLESGZ (SEQ ID NO: 55) (LCDR2 of 1qfw.pdb); Peptide-21: LLIFGASNRESGZ (SEQ ID NO: 56) (LCDR2 of 1qfw.pdb); Peptide-22: +QHFWSTPRTZ (SEQ ID NO: 57) (LCDR3 of 1fdl.pdb); Peptide-23: +QQSNSWPRTZ (SEQ ID NO: 58) (LCDR3 of 1mlb.pdb); Peptide-24: +QQWGRNPTZ (SEQ ID NO: 59) (LCDR3 of 3hfl.pdb); Peptide-25: +QQSNSWPYTZ (SEQ ID NO: 60) (LCDR3 of 3hfm.pdb); Peptide-26: +QQSDEYPYMYTZ (SEQ ID NO: 61) (LCDR3 of 1qfw.pdb); Peptide-27: +GQTYNHPYTZ (SEQ ID NO: 62) (LCDR3 of 1qfw.pdb) (1 fdl.pdb, 1mlb.pdb, 3hfl.pdb and 3hfm.pdb are antibodies that bind lysozyme; 1 qfw.pdb are two antibodies that bind human choriogonadotrophin). All peptides have an amioterminal bromo-group (+) and a carboxyterminal lysine-mmt (Z).
From six different antibodies, the HCDR3-region (complementary determining region three of the antibody heavy chain) was synthesized as synthetic loop-peptides. As an example, four different anti-lysozyme antibodies and two different anti-choriogonadotrophin antibodies were selected: 1fdl.pdb (D1.3), 1mlb.pdb (D44.1), 3hfl.pdb (HyHel-5), 3hfm.pdb (HyHel-10) all anti-lysozyme, and 1qfw.pdb, two anti-human choriogonadotrophin, one anti-alpha and one anti-beta. The synthetic loop peptides were coupled to the minicards as described above. The three-dimensional coordinates (pdb-files) were extracted from the Protein Data Bank (PDB) at www.rcsb.org (RCSB, Research Collaboratory for Structural Bioinformatics) (Berman et al., 2000, The Protein Data Bank. Nucleic Acids Research, 28 pp. 235-242; Bernstein et al. 1977, The protein data bank: A computer-based archival file for macromolecular structures. J. Mol. Biol. 112:535-542). […]

Antibody-1 = assay: Pepscan ELISA on single or double hFSH peptide loops, Antibody-1; details: individual loop peptides coupled as a single loop
Excerpt: (§1) FIG. 17: Result of Pepscan ELISA with two different antibodies on single or double peptide loops coupled to Pepscan minicards, as described above. Coupled to square-A: Loop peptide-1; Coupled to square-B: first Loop peptide-1 followed by Loop peptide-2; Coupled to square-C: Loop peptide-2; Coupled to square-D: first Loop peptide-2 followed by Loop peptide-1. Loop peptide-1: +KSYNRVTVMGGFKVEZ-conh2 (SEQ ID NO: 63); Loop peptide-2: +LQENPFFSQPGAPILZ-conh2 (SEQ ID NO: 64). The y-axis are optical density values (OD) obtained using a ccd-camera system. Both loop-peptides are derived from human Follicle-Stimulating Hormone (hFSH).
(§2) Two peptides that constitute two separate parts of a discontinuous epitope were coupled to the surface of a minicard as described above in the legend of FIG. 12 (cf. FIG. 3A and FIG. 4 (example-4)). A cys(mmt) was coupled alone or in combination with a cys(trt) (in a 1:1 ratio) and/or val(mmt) (the cys and val in a 1:1, 1:3, 1:9 etc. ratio). In this way one peptide was coupled (squares A and C) or two peptides with increasing valines in between the cysteines were coupled (squares B and D) (cf. FIG. 4B (example-4), FIG. 17). These four configurations were incubated with two different antibodies.

Antibody-2 = assay: Pepscan ELISA on single or double hFSH peptide loops, Antibody-2; details: individual loop peptides coupled as single loops
Excerpt: as §1, §2

lysozyme-biotin, sequence (P00698 19-147): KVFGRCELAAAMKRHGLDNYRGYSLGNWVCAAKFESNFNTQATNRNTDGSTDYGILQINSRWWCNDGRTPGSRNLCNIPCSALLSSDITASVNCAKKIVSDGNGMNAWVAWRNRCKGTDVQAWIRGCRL

| binding activity with lysozyme-biotin (lysozyme-biotin) | Substance | also measured |
| --- | --- | --- |
| – | IKSPCQRETPEG | Pepscan binding of monoclonal antibody 210 (optical density) (monoclonal antibody 210): minor peak; also recorded: small peak |
| highest binding activity | +LHGNYDFDGZ (SEQ ID NO: 32)+ASESVDSYGNSFMZ (SEQ ID NO: 45): loop-loop peptide pair: loop of HCDR3 of 3hfl.pdb and loop of LCDR1 1qfw.pdb (chain 1 {code +}-LHGNYDFDGK(mmt); chain 2 {code +}-ASESVDSYGNSFMK(mmt); not fully specified; reading uncertain) | – |
| – | +LQENPFFSQPGAPILZ-conh2 ({code +}-LQENPFFSQPGAPILX-NH2; not fully specified; printed as +LQENPFFSQPGAPILZ-conh2) [loop peptide-2, loop-peptide derived from human Follicle-Stimulating Hormone (hFSH)] | recognition by Antibody-1 (Antibody-1): recognized |
| – | +KSYNRVTVMGGFKVEZ-conh2 ({code +}-KSYNRVTVMGGFKVEX-NH2; not fully specified; printed as +KSYNRVTVMGGFKVEZ-conh2) [loop peptide-1, loop-peptide derived from human Follicle-Stimulating Hormone (hFSH)] | recognition by Antibody-2 (Antibody-2): recognized |
| highest binding activity | +LHGNYDFDGZ (SEQ ID NO: 32)+RASESVDSYGNSFZ (SEQ ID NO: 44): loop-loop peptide pair: loop of HCDR3 of 3hfl.pdb and loop of LCDR1 1qfw.pdb (chain 1 {code +}-LHGNYDFDGK(mmt); chain 2 {code +}-RASESVDSYGNSFK(mmt); not fully specified; reading uncertain) | – |
| highest binding activity | +LHGNYDFDGZ (SEQ ID NO: 32)+SESVDSYGNSFMQZ (SEQ ID NO: 46): loop-loop peptide pair: loop of HCDR3 of 3hfl.pdb with loop of LCDR1 of 1qfw.pdb (chain 1 {code +}-LHGNYDFDGK(mmt); chain 2 {code +}-SESVDSYGNSFMQK(mmt); not fully specified; reading uncertain) | – |
| highest binding activity | +LHGNYDFDGZ (SEQ ID NO: 32)+LLVYYTTTLADGZ (SEQ ID NO: 51): loop-loop peptide pair: loop of HCDR3 of 3hfl.pdb and loop of LCDR2 1fdl.pdb (chain 1 {code +}-LHGNYDFDGK(mmt); chain 2 {code +}-LLVYYTTTLADGK(mmt); not fully specified; reading uncertain) | – |
| highest binding activity | +LHGNYDFDGZ (SEQ ID NO: 32)+RASESVDSYGNSFMQZ (SEQ ID NO: 49): loop-loop peptide pair: loop of HCDR3 of 3hfl.pdb and loop of LCDR1 1qfw.pdb (chain 1 {code +}-LHGNYDFDGK(mmt); chain 2 {code +}-RASESVDSYGNSFMQK(mmt); not fully specified; reading uncertain) | – |
| highest binding activity | +LHGNYDFDGZ (SEQ ID NO: 32)+ASESVDSYGNSFZ (SEQ ID NO: 41): loop-loop peptide pair: loop of HCDR3 of 3hfl.pdb and loop of LCDR1 1qfw.pdb (chain 1 {code +}-LHGNYDFDGK(mmt); chain 2 {code +}-ASESVDSYGNSFK(mmt); not fully specified; reading uncertain) | – |
